{"source": "the PETadex activity labels (doi:10.1016/s0021-9258(19)85305-x)", "substrate": "p-NP-C2", "conditions": "pH 8; 27 °C", "data": [{"protein": "unnamed (protein) MRPPQCLLHTPSLASPLLLLLLWLLGGGVGAEGREDAELLVTVRGGRLRGIRLKTPGGPVSAFLGIPFAEPPMGPRRFLPPEPKQPWSGVVDATTFQSVCYQYVDTLYPGFEGTEMANPNRELSEDCLYLNVWTPYPRPTSPTPVLVWIYGGGFYSGASSLDVYDGRFLVQAERTVLVSMNYRVGAFGFLALPGSREAPGNVGLLDQRLALQWVQENVAAFGGDPTSVTLFGESAGAASVGMHLLSPPSRGLFHRAVLQSGAPNGPWATVGMGEARRRATQLAHLVGCPPGGTGGNDTELVACLRTRPAQVLVNHEWHVLPQESVFRFSFVPVVDGDFLSDTPEALINAGDFHGLQVLVGVVKDEGSYFLVYGAPGFSKDNESLISRAEFLAGVRVGVPQVSDLAAEAVVLHYTDWLHPEDPARLREALSDVVGDHNVVCPVAQLAGRLAAQGARVYAYVFEHRASTLSWPLWMGVPHGYEIEFIFGIPLDPSRNYTAEEKIFAQRLMRYWANFARTGDPNEPRDPKAPQWPPYTAGAQQYVSLDLRPLEVRRGLRAQACAFWNRFLPKLLSATDTLDEAERQWKAEFHRWSSYMVHWKNQFDHYSKQDRCSDL", "values": [{"measurement": "Km", "result": 3, "unit": "mM"}, {"measurement": "kcat", "result": 3170, "unit": "s⁻¹"}, {"measurement": "kcat/Km", "result": "1.06e+06", "unit": "s⁻¹ M⁻¹"}]}, {"protein": "unnamed (protein) MRPPQCLLHTPSLASPLLLLLLWLLGGGVGAEGREDAELLVTVRGGRLRGIRLKTPGGPVSAFLGIPFAEPPMGPRRFLPPEPKQPWSGVVDATTFQSVCYQYVDTLYPGFEGTEMWNPNRELSEDCLYLNVWTPYPRPTSPTPVLVWIYGGGFYSGASSLDVYDGRFLVQAERTVLVSMNYRVGAFGFLALPGSREAPGNVGLLDQRLALQWVQENVAAFGGDPTSVTLFGESAGAASVGMHLLSPPSRGLFHRAVLQSGAPNGPWATVGMGEARRRATQLAHLVGCPPGGTGGNDTELVACLRTRPAQVLVNHEWHVLPQESVFRFSFVPVVDGDFLSDTPEALINAGDFHGLQVLVGVVKDEGSYALVYGAPGFSKDNESLISRAEFLAGVRVGVPQVSDLAAEAVVLHYTDWLHPEDPARLREALSDVVGDHNVVCPVAQLAGRLAAQGARVYAYVFEHRASTLSWPLWMGVPHGYEIEFIFGIPLDPSRNYTAEEKIFAQRLMRYWANFARTGDPNEPRDPKAPQWPPYTAGAQQYVSLDLRPLEVRRGLRAQACAFWNRFLPKLLSATDTLDEAERQWKAEFHRWSSYMVHWKNQFDHYSKQDRCSDL", "values": [{"measurement": "Km", "result": 8.6, "unit": "mM"}, {"measurement": "kcat", "result": 333, "unit": "s⁻¹"}, {"measurement": "kcat/Km", "result": 38800, "unit": "s⁻¹ M⁻¹"}]}, {"protein": "unnamed (protein) MRPPQCLLHTPSLASPLLLLLLWLLGGGVGAEGREDAELLVTVRGGRLRGIRLKTPGGPVSAFLGIPFAEPPMGPRRFLPPEPKQPWSGVVDATTFQSVCYQYVDTLYPGFEGTEMWNPNRELSEDCLYLNVWTPYPRPTSPTPVLVWIYGGGFYSGASSLDVYDGRFLVQAERTVLVSMNYRVGAFGFLALPGSREAPGNVGLLDQRLALQWVQENVAAFGGDPTSVTLFGESAGAASVGMHLLSPPSRGLFHRAVLQSGAPNGPWATVGMGEARRRATQLAHLVGCPPGGTGGNDTELVACLRTRPAQVLVNHEAHVLPQESVFRFSFVPVVDGDFLSDTPEALINAGDFHGLQVLVGVVKDEGSYFLVYGAPGFSKDNESLISRAEFLAGVRVGVPQVSDLAAEAVVLHYTDWLHPEDPARLREALSDVVGDHNVVCPVAQLAGRLAAQGARVYAYVFEHRASTLSWPLWMGVPHGYEIEFIFGIPLDPSRNYTAEEKIFAQRLMRYWANFARTGDPNEPRDPKAPQWPPYTAGAQQYVSLDLRPLEVRRGLRAQACAFWNRFLPKLLSATDTLDEAERQWKAEFHRWSSYMVHWKNQFDHYSKQDRCSDL", "values": [{"measurement": "Km", "result": 4.6, "unit": "mM"}, {"measurement": "kcat", "result": 2170, "unit": "s⁻¹"}, {"measurement": "kcat/Km", "result": 471000, "unit": "s⁻¹ M⁻¹"}]}, {"protein": "unnamed (protein) MRPPQCLLHTPSLASPLLLLLLWLLGGGVGAEGREDAELLVTVRGGRLRGIRLKTPGGPVSAFLGIPFAEPPMGPRRFLPPEPKQPWSGVVDATTFQSVCYQYVDTLYPGFEGTEMWNPNRELSEDCLYLNVWTPYPRPTSPTPVLVWIYGGGFYSGASSLDVYDGRFLVQAERTVLVSMNYRVGAFGFLALPGSREAPGNVGLLDQRLALQWVQENVAAFGGDPTSVTLFGESAGAASVGMHLLSPPSRGLFHRAVLQSGAPNGPWATVGMGEARRRATQLAHLVGCPPGGTGGNDTELVACLRTRPAQVLVNHEWHVLPQESVFRFSFVPVVDGDFLSDTPEALINAGDFHGLQVLVGVVKDEGSFFLVYGAPGFSKDNESLISRAEFLAGVRVGVPQVSDLAAEAVVLHYTDWLHPEDPARLREALSDVVGDHNVVCPVAQLAGRLAAQGARVYAYVFEHRASTLSWPLWMGVPHGYEIEFIFGIPLDPSRNYTAEEKIFAQRLMRYWANFARTGDPNEPRDPKAPQWPPYTAGAQQYVSLDLRPLEVRRGLRAQACAFWNRFLPKLLSATDTLDEAERQWKAEFHRWSSYMVHWKNQFDHYSKQDRCSDL", "values": [{"measurement": "Km", "result": 5.4, "unit": "mM"}, {"measurement": "kcat", "result": 1600, "unit": "s⁻¹"}, {"measurement": "kcat/Km", "result": 296000, "unit": "s⁻¹ M⁻¹"}]}, {"protein": "unnamed (protein) MRPPQCLLHTPSLASPLLLLLLWLLGGGVGAEGREDAELLVTVRGGRLRGIRLKTPGGPVSAFLGIPFAEPPMGPRRFLPPEPKQPWSGVVDATTFQSVCYQYVDTLYPGFEGTEMWNPNRELSEDCLYLNVWTPYPRPTSPTPVLVWIYGGGFYSGASSLDVYDGRFLVQAERTVLVSMNYRVGAFGFLALPGSREAPGNVGLLDQRLALQWVQENVAAFGGDPTSVTLFGESAGAASVGMHLLSPPSRGLFHRAVLQSGAPNGPWATVGMGEARRRATQLAHLVGCPPGGTGGNDTELVACLRTRPAQVLVNHEWHVLPQESVFRFSFVPVVDGDFLSDTPEALINAGDFHGLQVLVGVVKDEGSYFLVYGAPGFSKDNESLISRAEFLAGVRVGVPQVSDLAAEAVVLHYTDWLHPEDPARLREALSDVVGDHNVVCPVAQLAGRLAAQGARVYAYVFEHRASTLSWPLWMGVPHGYEIEFIFGIPLDPSRNYTAEEKIFAQRLMRYWANFARTGDPNEPRDPKAPQWPPYTAGAQQYVSLDLRPLEVRRGLRAQACAFWNRFLPKLLSATDTLDEAERQWKAEFHRWSSYMVHWKNQFDHYSKQDRCSDL", "values": [{"measurement": "Km", "result": 5.6, "unit": "mM"}, {"measurement": "kcat", "result": 1830, "unit": "s⁻¹"}, {"measurement": "kcat/Km", "result": 327000, "unit": "s⁻¹ M⁻¹"}]}]}
